Data reported in PMC1950596.
One block for each substance: values may come before it.

Columns and labels:
[1] = target: Psu M6 mutant (P169V) (bacteriophage P4) (UniProt P05460); assay: cross-linking
[2] = target: Psu (polarity suppression protein), wild type, non-His-tagged (bacteriophage P4) (UniProt P05460); assay: SEC
[3] = target: Psu (polarity suppression protein), wild type, non-His-tagged (bacteriophage P4) (UniProt P05460); assay: cross-linking
[4] = target: Δ-CTD10 Psu, His-tagged (pRS459, pET28b) (bacteriophage P4) (UniProt P05460); assay: cross-linking

- stoichiometry N [1]: 2
Substance: Psu M6 mutant (P169V) (from UniProt P05460 1-190) (natural protein)

- stoichiometry N [2]: 3
- stoichiometry N [3]: 2
Substance: Psu (polarity suppression protein), wild type, non-His-tagged (from UniProt P05460 1-190) (natural protein)

- stoichiometry N [4]: 2
Substance: Δ-CTD10 Psu, His-tagged (pRS459, pET28b) (from UniProt P05460 1-180) (domain or fragment)
